The nanobody polyreactivity screen of Harvey et al. (2022)

Assay: yeast display, Sf9 membrane polyspecificity reagent, FACS + sequencing; frameworks hold sequencing errors
How it was run: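 A synthetic nanobody library was expressed on Saccharomyces cerevisiae BJ5465 by galactose induction for 36–48 hours. The library was stained for 1 hour at 4 °C with 10% biotinylated, detergent-solubilized Sf9 membrane reagent and enriched with streptavidin microbeads before FACS. Low and high (top ~1%) gates were set on anti-HA fluorescence for expression and streptavidin fluorescence for reagent binding, and each polyreactivity label reflects the gate of origin.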

| Sequence | polyreactivity (PSR sort gate) |
| --- | --- |
| QVQLVESGGGLVQAGGSLRLSCAASGSTFDRYAMGWYRQAPGKERELVAAISWSAGRTYYADTVKARFTISRDYAKNTVYLQMNSLKPEDTAVYYCAADQIVSGTYDYYWGQGTQVTVSS | low polyreactivity |
| QVQLVESGGGLVQAGGSLRLSCAASGITFPYYAMGWYRQAPGKERELVAAITIRSGRTYYADSVKGRFTISRDNAKNTVYLQMNSLKPEDTAVYYCAARLSNTYGYWGQGTQVTVSS | high polyreactivity |
| QVQLVESGGGLVQAGGSLRLSCAASGSTFGEYAMGWYRQAPGKERELVAAITFSGGSTYYADSVKGRFTISRDNAKNTVYLQMNSLKPEDTAVYYCNADGVWVYGYRWEWLWYDYWGQGTQVTVSS | low polyreactivity |
| QVQLVESRGGLVQAGGSLRLSCAASGSIFPFYAKGWYRQAPGKEREFVASISSGGSTNYADSVKGRFTISRDNAKNTVYLQMNSLKPEDTAVYYCNADVPYRWDTWFQVVYPESYDYWGQGTQVTVSS | low polyreactivity |
| QLQLVESGGGLVQAGGSLRLSCAASGHIFDANVMGWSRQAPGKERELVAAISSGGRTKYADSVKGRFTISRDNAKNTVYLQMNSLKPEDTAVYYCAKKHFPLYDYWGQGTQVTVSS | low polyreactivity |
| QVQLVESGGGLVHAGGSLRLSCAAYGFIFYDYVMGWYRQAPGKERELVAAITGSGGGTYYADSVKGRFTISRDNAKNTVYLQMNSLKPDATAVYYCAADFISVYGYEYYYWGQVTQVTVSS | high polyreactivity |
| QVQLVESGGGLVQAGGSLRLSCAASGRTFASYAMGWYRQAPGKERELVAGITSGGNTYYADSVKGRFTISRDNAKNTVYLQMNSLKPEDTAVFYCAADGVYKGWPTHYDYWGHGTQVTVSS | high polyreactivity |
| QVQLVESGGRLVQAGGSLRLSCAASGITFVYYAMGWYRQAPGKERELVASISSGGSTYYADSVKGRFTISRDNAKNTVYLQMNSLKPEDTAVYDCAAPTGWYPAYGEYEYWGQGTQVTVSS | low polyreactivity |
| QGQRVESGGGLVQAGCSLRLSSAASGSTFNEYTLGWYRQAPGKERELVAAIRASDGSTFYADTVKGRFTISRDYAKNSVYFQMNSLKPEDTSVYYCPADYYWNDYWGQGTQVTVSS | low polyreactivity |
| QVQLVESGGGLVQAGGSLRLSCAASGFTFYTYAMGWYRQAPGKERELVADISSGGSTNYADPVKGRFTISRDNAKNTVDLQMNCLKPEDTAVYYCSADYYFLDWYDYWGQGTQVTVSS | low polyreactivity |
| QVQLVESGGGLVQAGGSLRLSCAASGSTIPLYAMGWYRQAPGKERELVAAISRRGGRTYYADSVKGRFTISRDYAKNTVYLQMNSLKQEDTAVYYCATAQGSRVDYWGQGTQVTVSS | high polyreactivity |
| QVQLVESGGGLVQAGGSLRLSCAASGFIFYNYAMGWYRQAPGKERELVAAISASGGRTYYADSVKGRFTISRDNAKNTVYLQMHRLKPEDTAVYYCIARVKYKGYDYWGQGTQVTVSS | high polyreactivity |
| QVQLVESGGGLVQAGGSLRLSCAASGRTFQLYAMGWYRQAPGKERELVAAITSGGNTYYADSVKGRFTISRDNAKNTVYLQMNSLKPVDTAVYYCFLYYSRSMGYWGQGTQVTVSS | high polyreactivity |
| QVQLVESGGGLVQAGGSLRLSCAASGRTFKYYAMGWYRQAPGIEREFVAAITVSGGSTYYADSVKGRFTISRDNAKNPVYLQMNSLKPEDTAVYYCAARYQRYSSKTIQNEDYWGQGTQVTVSS | high polyreactivity |
| QVQLVESGGGLVQAGGSLRLSCAASGSTFLSYAKGWYRQATGKEREVVAAISGRGGSTYYADSVKGRFTISRDNAKNTVYLKMNSLKPEDTAVYYCARVYRPSADTYNYWGQGTQVTVSS | high polyreactivity |
| QVQLVESGGGLVQAGGSLRLSCAASGFTFDANAIGWYRQAPGKERELVAAISSSGGSTYYADSVKGRFTISRDNAKNTVYLQMNSLKPEDTAVYYCAADLAPGRHDYWGQGTQVTVSS | high polyreactivity |
| QVQLVESGGGLVQAGGSLRLSCAASGRTIDDYDMGWYRQAPGKERELVADINSGGSTYYADSVKGRFTISRDNAKNTVYLQMNSLKPEDTAVYYCAATLVPWPYTGPRYGYWGQGTQVTVSS | high polyreactivity |
| QVQLVESGGGLVQAGGSLRLSCAASGSTFYPYVMGWYRQAPGKERELVAGISYRGGITYYADSVKGRFTISRDYAKNTVYLQMNSLKPEDTAVYYCAADYWSVYLARKMDYWGQGTQVTVSS | low polyreactivity |
| QVQLVESGGGLVQAGGSLRLSCVASGGIFFHYAMRWYRHARGKERELVAAISISGGSTYSADSVKGRFTISRDNAKNTVYLQMNSLKPEDTAVYYCAARYWVRRKDYWGQGTQVTVSS | low polyreactivity |
| QVQLVESGGGLVQAGGRLRLSCAASGSILNFYAMGWYRQAPGKEREFVASISWDGASTYYADSVKGRFTISRDNAKNTVYLPMNSLKPEDTAVYYCAATRYYSFWGQGTQVTVSS | low polyreactivity |
| QVQLVESGGGLVQAGGSLRLRCAASGSTLYIYAMGWYRQAPGKERELVAAITSSTGSTYADSVKGRFTISRDNAKNTVYLQMNSLKPEDTAVYYCNAGGPLQPYDYWGQGTQVTVSS | low polyreactivity |

| Sequence | polyreactivity (PSR sort gate) |
| --- | --- |
| QVQLVESGGGLVQAGGSLRLSCAASGYIFRVYAMGWYTPAPGKERELVAAISGSGGRTYYADSVKGRFKFSLDIAKNTVYLKMNSLKREDTAVYYCAATLYYYVGVRYDYWGQGSQVTVSS | high polyreactivity |
| QVQLVESGGGLVQAGGSLRLSCAASGFTFGYNAMGWYRQAPGKERELVAAISRSGGRTYYADSVKGRFTISRDNAKNTVYLQMNSLKPEDTAVYYCARRYRDYGRYGYWGQGTQVTVSS | high polyreactivity |
| QVQLVESGGGLVQAGGSLRLSCAASGSIFGYYAMGWYRQAPGKERELVAAIRTTGGRTYYADSVKGRFTISRDNAKNTVYLQMNSLKPEDTAVYYCNALQAGVSYDYWGQGTQVTVSS | high polyreactivity |
| QVQLVESGGGLVQAGGSLRLSCAASGRIFSRYAMGWYLQAPGKERELVAAISWSGGSTYYADSVKGRFTISRDNAKNTVYLQMNSLKPEDTAVYYCAAKRQYTEYNYWGQGTQVTVSS | high polyreactivity |
| QVQLVESGGGLVQAGGSLRLSCAASGRTFPWYAMGWYRQAPGKERELVAAISWTGGSTYYADSVKGRFTISRDNAKNTVYLQMNSLKPEDTAVYYCAASPWYLKYEYWGQGTQVTVSS | low polyreactivity |
| QVQLVESGGGLVQAGGSLRLSCAASGYTITQNAMGWYRQAPGKERELVASITSGGSTDYADSVKGRFTISRDNAKNTVYLQMNSLKPEDTAVYYCAAGTATDVASIGATKDYDYWGQGTQVTVSS | low polyreactivity |
| QVQLVESGGGLVQAGGSLRLSCAASGFIFYDYAMGWYRQAPGKERELVAAIRSSDGGTYYADSEKGPFTISRDNAKNTVYLQMNSLKPEDTAVDYCAAEIRWGWHPYYDYDEYWGQGTLVTVSS | low polyreactivity |
| QVQLVESGGGLVQAGGSLRLSCAASGRIFYFYAMGWYRQAPGKERELVASISSGGITNYADSVKGRFTISRDNAKNTVYLQMNSLKPEDTAVYYCAADYGYYSRLYYWGQGTQVTVSS | low polyreactivity |
| QGQLVESGGGLVQAGGSLRLSCAASGSIFVINAMGWYRQAPGKERELVAAIDWGGDTTYYADSVKGRFTISRDNAKNTVYLQMNSLKPEDSAVYYCAAGYYLRRYYYWGQGTQVTVSS | high polyreactivity |
| QVQLVESGGGLVQAGGSLRLSCAASGSIFNPNAMGWYRQAPGKERELVAAISYSDATTYYADSVKGRFTISRDNAKNTVYLQMNSLKPEDTAVYYCAAEPAAGDYDYWGQGTQVTVSS | high polyreactivity |
| QVQLVESGGGLDQAGGSLRLSCAASGRNFTRYAMGWYRQAPGKERELVAVITRSGGSTYYADSVKGRFTISRDNAKNTVYLQMNSVKPEDTAVYYCDAKYYGEMYYWGQRTQVTVSS | low polyreactivity |
| QVQLGESGGGLVQAGGSLRFSCAASGRPFFVYGMGWSRQAPGKERELVAAISWNGGRTYYADSVKGRFTISRDKAKNTVYLQMKSLKPEDTAVYYCNARARDYTGPSSPIFYYWGQGTQVTVSS | low polyreactivity |
| QVQLVESGGGLVQAGGSLRLSCAASGSTFTLNAMGWYRQAPGKERELVADISWSSGRTYYADSVKGRFTISRDTEKNTVYLQMNSLKPEDTAVYYCATDDLSIVKFYAYYPEFDYWGQGTQVTVSS | low polyreactivity |
| QVQLVESGGGLVQARGSLRLSCAASGSIFRYNAMGWYRQAPGKERELVAAITSAGGSTYYADSVKGRFTISRDKAKNTVYLQMNSLKPEDTAVYYCAVRYYVYFPWPRVTERMYYWGQGTQVTVSS | high polyreactivity |
| QVQLVESGRGLVQAGGSLRLSCAASGITFVRYAMGWYRQAPGKEREFVAAITTSGGSTYYADSVKGRFTISRDNAKYSVYLQLNSLKPEDTAVYYCAARANAASRTFNYWGQGTQVTVSS | high polyreactivity |
| QVQLVESGGGLVQAGGSLRLSCAASGSIFEPNAMVWYRQAPGKERELVAVISIDGITYYADSVKGRFTISRDNAKNSVYLQMNSLKPEDTAVYYCAAYLGQGESYGAYDYWGQGTQVTVSS | low polyreactivity |
| QVQLVESVGGLVQAGGSLRLSCAASGSIFVNNAMGWYRQAPGKERELVAAISRSGGSTYYADSVKGRFTISRDNAKNTVYLQMNSLKPEDTAVYYCATVHRSSTPPEFNYWGQGTQVTVSS | high polyreactivity |
| QVQLVESGGGLVQAGGSLRLSCAASGFIFGVNAMGWYRQARGKERELVAAISTSGGSTYYADSVKGRFTISRDNAKNTVYLQMNSLKPEDTAVYYCAALLHRWAYGTYGYVYWGQGSQVTVSS | high polyreactivity |
| QVQLVESGGGLVQAGGSLRLSCAASGRIFSYNAMGWYRQAPGQERELVAAITTGGSTYYADSVKGRFTISRDNAKNTVYLQMNSLKPEDTAVYYCNKLGYYYDRRYDYWRQGTQVTVSS | high polyreactivity |
| QVQLVESGGGLVQAGGSLRLSCAACGLTFDDYAMGWSRQAPGKERELVAAISKSGDGTYYADSVKGRFTISRDNAKNTVYLQMNSLKPEDTAVYYCNADAKYWGFVYWWFGEDNWGQGTQVPVSS | low polyreactivity |
